From the supplement of paper PMC12042874
± gives the uncertainty stated by the source.

Assay: amyloid nucleation score (Sup35N fusion, yeast selection) (log enrichment); library NNK3; higher = more nucleation; inactive = no reads after selection
In short: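 The nucleation score equals the log enrichment of output over input reads from DiMSum, centred on the mode score of non-aggregating sequences. It was computed only for sequences with 100 or more input reads. The reads came from Illumina sequencing of plasmid inserts from psi-negative yeast expressing Sup35N fused to peptides of 20 random codons, induced with 100 μM copper sulfate for 24 hours and grown 7 days at 30°C without adenine and uracil.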
For GRHNKCMVDLVEDFQLASIW, the amyloid nucleation score was “inactive”.
In the case of VSIHCGRVYDWEGGFGERVN, the amyloid nucleation score is reported as “inactive”.
For GGEGHSEVRRKTPGITCACI, the amyloid nucleation score was “inactive”.
With WFPMSAKLYAHATHCVPLSL the amyloid nucleation score was “inactive”.
In the case of LLRVCVSFRCIVNSCMRR, the amyloid nucleation score is reported as “inactive”.
With RFIDWQVCD the amyloid nucleation score was “inactive”.
With ILCVFVYRSRAESYEL the amyloid nucleation score was 0.446 ± 0.23.
Work on GDHSDWRKRGSLLNGVVLCV yielded an amyloid nucleation score of -0.5 ± 1.5.
Work on PLEWNNGVYISGWLWVLVSW yielded an amyloid nucleation score of -0.518 ± 0.63.
For FFRNDCGHVFSYVAGSES, the amyloid nucleation score was “inactive”.
For SAYAGYKRLGASEVILLSPY, the amyloid nucleation score was “inactive”.
With FLVCSGSNVWTREASHGGGN the amyloid nucleation score was -0.188 ± 0.47.
RLNAYMCLEMVTLSTRKHVG showed an amyloid nucleation score of 1.79 ± 0.079.
In the case of GSGHAVIEVIRRFCSEDDNK, the amyloid nucleation score is reported as “inactive”.
For LYVTRVSVSVVTYRFTCKRV, the amyloid nucleation score was “inactive”.
Work on IPRYVWNVPRWYVYQFVCGA yielded an amyloid nucleation score of 0.27 ± 0.54.
With TRRQTGYILSTLWLAHCHFR the amyloid nucleation score was “inactive”.
In the case of YSTFLFQGYLFLEPEYSGCR, the amyloid nucleation score is reported as “inactive”.
For LASRSHKHINATLAHLNPLL, the amyloid nucleation score was “inactive”.
In the case of FTVYCF, the amyloid nucleation score is reported as “inactive”.
For RYRSGLDPFRCSYFNSPFYS, the amyloid nucleation score was “inactive”.
In the case of FHWYFAVSYTSYNMLSVWFV, the amyloid nucleation score is reported as “inactive”.
With VSSILQRIISYFRTARFNYL the amyloid nucleation score was “inactive”.
In the case of IGKVLDAFGE, the amyloid nucleation score is reported as “inactive”.
For NMTHLFMVCAKVSMPSGDGG, the amyloid nucleation score was “inactive”.
For YSDWDIYWIFMFGAGRFFMY, the amyloid nucleation score was 3.06 ± 0.068.
With QVLWTGEMDSMICWA the amyloid nucleation score was “inactive”.
In the case of ACVRKIIKVGYFYERISIRV, the amyloid nucleation score is reported as “inactive”.
LFLLNVAYCNCFT gave an amyloid nucleation score of 3.27 ± 0.059.
In the case of CNCVYSSANFCDIMYTNRLG, the amyloid nucleation score is reported as 1.14 ± 0.085.
For TRHSHLCS, the amyloid nucleation score was “inactive”.
With DVRRWNNYDLRGWVVA the amyloid nucleation score was “inactive”.
GNMQVRYRIESANNRMGQRE gave an amyloid nucleation score of 0.261 ± 0.47.
With SRQLQPYYSVFRCLVRGSIK the amyloid nucleation score was “inactive”.
With GIRHVGLVGTMSRKDWSYFR the amyloid nucleation score was “inactive”.
For PCLSDPSYIELNKLASVFTG, the amyloid nucleation score was “inactive”.
RDDGEALVTSARRVQTSYPA showed an amyloid nucleation score of -0.145 ± 0.93.
Substance EDSRLLGC has an amyloid nucleation score of 0.724 ± 0.14.
With VFFVQCNHWNGMVNVFAM the amyloid nucleation score was 2.9 ± 0.057.
For HGGMVSMGGNKQ, the amyloid nucleation score was “inactive”.
In the case of KYGENDLRFENITYLFGV, the amyloid nucleation score is reported as “inactive”.
With GGRDNTEIDVMTWRRRPGKS the amyloid nucleation score was “inactive”.
In the case of LNAMWAWSRLDCNWGIQRNR, the amyloid nucleation score is reported as “inactive”.
For KVSWMFYRCSDNNN, the amyloid nucleation score was 1.66 ± 0.074.
For CTRSVSILESLRDSNTSLSQ, the amyloid nucleation score was “inactive”.
For VWSEDIYFCIILRLMDKS, the amyloid nucleation score was “inactive”.
Work on FVSGDSNTIIQPMAYNMDSK yielded an amyloid nucleation score of -0.282 ± 0.42.
With LELLRTERKRMKCLKPVLRV the amyloid nucleation score was “inactive”.
With LVKLKL the amyloid nucleation score was “inactive”.
For DYESCEIRVLETEWIGVGT, the amyloid nucleation score was “inactive”.
In the case of WKFINDIASN, the amyloid nucleation score is reported as “inactive”.
In the case of LDSFATRGYSWSLGIIVMKI, the amyloid nucleation score is reported as “inactive”.
With LARPHDNSGCCSSNCDLRSC the amyloid nucleation score was “inactive”.
In the case of DFDLLSFIRSDVIPCVCSKG, the amyloid nucleation score is reported as “inactive”.
For HGAVRQLNRGRKWSSLETVG, the amyloid nucleation score was 0.85 ± 0.19.
In the case of IMGYGWDCTSDGLCVTCFYS, the amyloid nucleation score is reported as “inactive”.
For LEGALRQDSCHKVPKLGQPV, the amyloid nucleation score was “inactive”.
For FLHQGT, the amyloid nucleation score was “inactive”.
In the case of GWWRMAWLV, the amyloid nucleation score is reported as “inactive”.
MCSPYFMSTSNTIFQSTRYG gave an amyloid nucleation score of 1.12 ± 0.12.
SRCIDGSAWASVAQRRSFSE gave an amyloid nucleation score of -0.098 ± 0.85.
For FKLTDLCC, the amyloid nucleation score was “inactive”.
For IVYPFSGLMPDGAFRKEFDA, the amyloid nucleation score was “inactive”.
With CYKMNVMT the amyloid nucleation score was “inactive”.
TDSLFGVIDHFYENRFW gave an amyloid nucleation score of -0.845 ± 1.4.
In the case of IMEEFVTIFDYLQMAMFTRR, the amyloid nucleation score is reported as “inactive”.
In the case of QYICHDNCRCCQRNEKFRRK, the amyloid nucleation score is reported as “inactive”.
With VGSIYDSHNLPMSGHSDWNG the amyloid nucleation score was “inactive”.
In the case of YGVLS, the amyloid nucleation score is reported as “inactive”.
With VRVVVISPGRSCRVNPSDSP the amyloid nucleation score was “inactive”.
Work on RLINKYWSPNPMLRKFR yielded an amyloid nucleation score of 1.09 ± 0.11.
For ACVSGIIFLLREQLLKMSGI, the amyloid nucleation score was “inactive”.
In the case of HSLVSLWYGSRCIILSR, the amyloid nucleation score is reported as “inactive”.
In the case of RLSLFRGKCRVYYYTGSIQV, the amyloid nucleation score is reported as “inactive”.
In the case of SSKCWSTSCFFKGKSLSSLG, the amyloid nucleation score is reported as “inactive”.
For ISGLSNMAYFLVNAWKLM, the amyloid nucleation score was “inactive”.
For FPSKCCANKSSYLGWTSLCW, the amyloid nucleation score was “inactive”.
For GVCGVLGFYFDPIITSL, the amyloid nucleation score was “inactive”.
